B1: clone 8 (VHH)
VHH: DVQLVESGGGSVQPGGSLRLSCAASGYTVENSCMAWFRQAPGKEREVVATIVTNNATGTFYADSVKGRFTVSQDNAKNTLNLQMNSLEPEDTAMYYCAADTKWIVCSRGYRYTPNWANQFKYWGQGTQVTVSS
B2: clone 36 (VHH)
VHH: DVQLVESGGGSVQPGGSLRLSCAASGYTVENSCMAWFRQAPGKEREVVATIVTNNATGTFYADSVKGRFTVSQDNAKNTLNLQMNSLEPEDTAMYYCAADTKWIVCSRGYRYTPNWANQFKYWGQGTQVTVSS
B3: clone 34 (VHH)
VHH: DVQLVESGGGSVQPGGSLRLSCAASGYTVENSCMAWFRQAPGKEREVVATIVTNNATGTFYADSVKGRFTVSQDNAKNTLNLQMNSLEPEDTAMYYCAADTKWIVCSRGYRYTPNWANQFKYWGQGTQVTVSS
B4: clone 30 (VHH)
VHH: DVQLVESGGGSVQPGGSLRLSCAASGYTVDNSCMAWFRQAPGKEREVVATIVTNNATSTFYADSVKGRFTVSHDNAKNTLNLQMNTLEPEDTAMYYCAADTKWIVCSRGYRYTPNWANHFNYWGQGTLVTVSS
B5: clone 40 (VHH)
VHH: DVQLVESGGGSVQPGGSLRLSCAASGYTVDNSCMAWFRQAPGKEREVVATIVTNNATSTFYADSVKGRFTVSHDNAKNTLNLQMNTLEPEDTAMYYCAADTKWIVCSRGYRYTPNWANHFNYWGQGTLVTVSS
B6: clone 38 (VHH)
VHH: DVQLVESGGGSVQPGGSLRLSCAASGYTVDNSCMAWFRQAPGKEREVVATIVTNNATSTFYADSVKGRFTVSHDNAKNTLNLQMNTLEPEDTAMYYCAADTKWIVCSRGYRYTPNWANHFNYWGQGTLVTVSS
B7: clone 10 (VHH)
VHH: EVQLVESGGGSVQAGGSLRLSCVVSGYTCSVYDMIWYRQPPGKEREFVSLINSNGRTTYADSVKGRFTISQNNAKNTVYLQMNSLKPEDTAMYYCHAACYSPSRLNYWGQGTQVTVSS
B8: clone 33 (VHH)
VHH: EVQLVESGGGSVQAGGSLRLSCVVSGYTCSVYDMIWYRQPPGKEREFVSLINSNGRTTYADSVKGRFTISQNNAKNTVYLQMNSLKPEDTAMYYCHAACYSPSRLNYWGQGTQVTVSS
B9: single-domain antibody VHH-22 containing His6 tag (VHH)
VHH: QVQLVESGGGSVQAGGSLRLSCVVSGYTCSVYDMIWYRQPPGKEREFVSLINSNGRTTYADSVKGRFTISQNNAKNTVYLQMNSLKPEDTAMYYCHAACYSPSRLNYWGQGTLVTVSS
notes: also called Nanobody #22
B10: clone 26 (VHH)
VHH: QVQLVESGGGSVQAGGSLRLSCVVSGYTCSVYDMIWYRQPPGKEREFVSLINSNGRTTYADSVKGRFTISQNNAKNTVYLQMNSLKPEDTAMYYCHAACYSPSRLNYWGQGTLVTVSS
B11: single-domain antibody VHH-25 containing His6 tag (VHH)
VHH: EVQLVESGGGSVQAGGSLRLSCVVSGYTCSVYDMIWYRQPPGKEREFVSLINSNGRTTYADSVKGRFTISQNNAKNTVYLQMNSLKPEDTAMYYCHAACYSPSRLNYWGQGTQVTVSS
notes: also called Nanobody #25; pALT-Avb3 VHH25 product
B12: clone 37 (VHH)
VHH: HVQLVESGGGSVQTGGSLRLSCAASGYTSSTVYMAWFRQTPGKQREGVAAIYTGGGPTYYADSVKGRFTISQDNAKNTVYLQMNTLKPEDTAMYYCAADRYVYRLVTNWYRPSFYTYWGQGTQVTVSS
B13: VHH-12 (VHH)
VHH: EVQLVESGGGSVQPGESLRLSCVASGYTVSSSCMAWFRQAPGKEREVVATIVVTSDTTSTFYADSVKGRFTISPDNAKNTLNLQMNSLEPSDTAMYYCAADRKWNVCSRGYRYTPNWANQFTFWGQGTQVTVSS
notes: also called clone 12
B14: clone 19 (VHH)
VHH: EVQLVESGGGSVQPGESLRLSCVASGYTVSSSCMAWFRQAPGKEREVVATIVVTSDTTSTFYADSVKGRFTISPDNAKNTLNLQMNSLEPSDTAMYYCAADRKWNVCSRGYRYTPNWANQFTFWGQGTQVTVSS
B15: clone 32 (VHH)
VHH: EVQLVESGGGSVQPGESLRLSCVASGYTVSSSCMAWFRQAPGKEREVVATIVVTSDTTSTFYADSVKGRFTISPDNAKNTLNLQMNSLEPSDTAMYYCAADRKWNVCSRGYRYTPNWANQFTFWGQGTQVTVSS
B16: clone 28 (VHH)
VHH: EVQLVESGGGSVQPGESLRLSCVASGYTVSSSCMAWFRQAPGKEREVVATIVVTSDTTSTFYADSVKGRFTISPDNAKNTLNLQMNSLEPSDTAMYYCAADRKWNVCSRGYRYTPNWANQFTFWGQGTQVTVSS
B17: single-domain antibody VHH-13 containing His6 tag (VHH)
VHH: HVQLVESGGGSVQPGESLRLSCVASGYTVSSSCMAWFRQAPGKEREVVATIVVTSDTTSTFYADSVKGRFTISPDNAKNTLNLQMNSLEPSDTAMYYCAADRKWNVCSRGYRYTPNWANQFTFWGQGTQVTVSS
notes: also called Nanobody #13
B18: clone 4 (VHH)
VHH: EVQLVESGGGSVQPGESLRLSCVASGYTVSSSCMAWFRQAPGKEREVVATIVVTSDTTSTFYADSVKGRFTISPDNAKNTLNLQMNSLEPPDTAMYYCAADRKWNVCSRGYRYTPNWANQFTFWGQGTQVTVSS
B19: clone 29 (VHH)
VHH: DVQLVESGGGSVQPGESLRLSCVASGYTVSSSCMAWFRQAPGKEREVVATIVVTSDTTSTFYADSVKGRFTISPDNAKNTLNLQMNSLEPSDTAMYYCAADRKWNVCSRGYRYTPNWANQFTFWGQGTLVTVSS
B20: clone 3 (VHH)
VHH: EVQLVESGGGSVQPGESLRLSCVASGYTVSSSCMAWFRQAPGKEREVVATIVVTSDTTSTFYADSVKGRFTISPDNAKNTLNLQMNSLEPPDTAMYYCAADRKWNVCSRGYRYTPNWANQFTFWGQGTQVTVSS
B21: clone 2 (VHH)
VHH: EVQLVESGGGSVQPGESLRLSCVASGYTVSSSCMAWFRQAPGKEREVVATIVVTSDTTSTFYADSVKGRFTISPDNAKNTLNLQMNSLEPPDTAMYYCAADRKWNVCSRGYRYTPNWANQFTFWGQGTQVTVSS
B22: clone 39 (VHH)
VHH: EVQLVESGGGSVQPGESLRLSCVASGYTVSSSCMAWFRQAPGKEREVVATIVVTSDTTSTFYADSVKGRFTISPDNAKNTLNLQMNSLEPPDTAMYYCAADRKWNVCSRGYRYTPNWANQFTFWGQGTQVTVSS
B23: clone 21 (VHH)
VHH: HVQLVESGGGSVQPGESLRLSCVASGYTVSSSCMAWFRQAPGKEREVVATIVVTSDTTSTFYADSVKGRFTISPDNAKNTLNLQMNSLEPSDTAMYYCAADRKWNVCSRGYRYTPNWANQFTFWGQGTQVTVSS
B24: clone 27 (VHH)
VHH: HVQLVESGGGSVQPGESLRLSCVASGYTVSSSCMAWFRQAPGKEREVVATIVVTSDTTSTFYADSVKGRFTISPDNAKNTLNLQMNSLEPSDTAMYYCAADRKWNVCSRGYRYTPNWANQFTFWGQGTQVTVSS
B25: clone 14 (VHH)
VHH: DVQLVESGGGSVQPGESLRLSCVASGYTVSSSCMAWFRQAPGKEREVVATIVVTSDTTSTFYADSVKGRFTISPDNAKNTLNLQMNSLEPSDTAMYYCAADRKWNVCSRGYRYTPNWANQFTFWGQGTLVTVSS

Experiments:
[1] = target: T1, human αvβ3 integrin ITGAVB3 (human, UniProt P06756 31-992; P05106 27-718, limits assumed); test: phage ELISA, coated ITGAVB3, anti-M13-HRP, 490 nm
T1 construct: Recombinant heterodimer used as immunogen, ELISA coating and SPR ligand; also called A5B3; A5b3
T1 sequence (P06756 31-992 limits assumed, chain 1 of 2): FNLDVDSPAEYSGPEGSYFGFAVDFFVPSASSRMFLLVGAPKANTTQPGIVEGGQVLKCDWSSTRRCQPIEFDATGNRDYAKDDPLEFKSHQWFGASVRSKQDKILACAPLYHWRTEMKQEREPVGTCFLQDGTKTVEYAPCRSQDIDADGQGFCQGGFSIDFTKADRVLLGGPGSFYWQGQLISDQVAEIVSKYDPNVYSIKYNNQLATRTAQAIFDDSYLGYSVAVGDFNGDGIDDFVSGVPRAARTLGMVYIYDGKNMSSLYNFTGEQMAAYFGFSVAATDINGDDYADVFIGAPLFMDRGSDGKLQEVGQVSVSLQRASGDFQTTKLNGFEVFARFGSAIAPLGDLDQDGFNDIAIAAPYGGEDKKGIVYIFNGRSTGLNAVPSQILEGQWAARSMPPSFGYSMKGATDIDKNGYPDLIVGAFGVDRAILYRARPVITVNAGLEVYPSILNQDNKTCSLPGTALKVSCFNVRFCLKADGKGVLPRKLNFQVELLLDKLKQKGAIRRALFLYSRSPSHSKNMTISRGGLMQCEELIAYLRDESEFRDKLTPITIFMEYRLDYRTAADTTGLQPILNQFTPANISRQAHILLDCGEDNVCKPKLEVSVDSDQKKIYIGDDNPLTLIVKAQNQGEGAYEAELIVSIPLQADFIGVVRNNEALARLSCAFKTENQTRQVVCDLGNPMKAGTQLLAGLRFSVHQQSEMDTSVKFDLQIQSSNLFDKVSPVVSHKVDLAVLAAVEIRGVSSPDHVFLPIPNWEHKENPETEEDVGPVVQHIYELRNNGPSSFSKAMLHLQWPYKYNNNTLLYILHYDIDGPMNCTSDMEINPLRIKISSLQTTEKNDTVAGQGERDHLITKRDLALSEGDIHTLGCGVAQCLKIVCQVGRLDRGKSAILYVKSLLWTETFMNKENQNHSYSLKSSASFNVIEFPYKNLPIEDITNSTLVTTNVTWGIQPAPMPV
T1 sequence (P05106 27-718 limits assumed, chain 2 of 2): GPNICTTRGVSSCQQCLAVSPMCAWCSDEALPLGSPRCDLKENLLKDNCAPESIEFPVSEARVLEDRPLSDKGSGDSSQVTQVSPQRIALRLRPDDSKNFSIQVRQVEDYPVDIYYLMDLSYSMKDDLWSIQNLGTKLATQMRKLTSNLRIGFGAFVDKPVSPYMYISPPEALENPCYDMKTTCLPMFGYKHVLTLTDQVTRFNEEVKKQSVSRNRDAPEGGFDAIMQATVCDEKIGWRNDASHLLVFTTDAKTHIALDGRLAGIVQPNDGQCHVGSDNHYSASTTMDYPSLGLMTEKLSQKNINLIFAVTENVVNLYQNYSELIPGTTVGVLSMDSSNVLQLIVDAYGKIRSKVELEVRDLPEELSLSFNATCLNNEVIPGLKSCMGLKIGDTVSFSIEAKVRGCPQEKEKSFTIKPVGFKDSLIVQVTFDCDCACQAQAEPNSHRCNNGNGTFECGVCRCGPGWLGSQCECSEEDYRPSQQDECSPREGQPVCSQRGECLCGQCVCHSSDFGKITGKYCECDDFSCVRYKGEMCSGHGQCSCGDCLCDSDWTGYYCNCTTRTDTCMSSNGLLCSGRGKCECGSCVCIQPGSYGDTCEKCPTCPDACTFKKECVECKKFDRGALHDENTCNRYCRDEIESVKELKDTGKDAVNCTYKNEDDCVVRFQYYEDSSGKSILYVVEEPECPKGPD
Method: Further, in order to perform phage ELISA, 2.5 μg/mL to […] of a target protein and a control protein were coated at 4 degrees C. using a coating buffer, and the wells were washed 3 times with 200 μL washing buffer per well. The wells were blocked with 200 μL PBS-M for two hours at room temperature. The blocking buffer was removed and the plate was washed 6 times with the washing solution. Thereafter, 100 μL of phage solution was added to the washing buffer per well and incubation was executed at room temperature for 1 to 2 hours. Then, washing was performed 6 times with washing buffer. HRP-binding anti-M13 antibody (GE healthcare) was diluted with 1:5,000 blocking buffer. 100 μL of diluted conjugate was added onto each well, and incubation was performed at room temperature for 1 hour, and washing was carried out 6 times with washing buffer. The HRP substrate solution was prepared as follows: A stock solution of OPD was prepared by dissolving 22 mg OPD (Sigma) in 100 mL of […] sodium citrate (pH 4.0), and 36 μL 30% H₂O₂ was added to 21 mL of OPL stock solution immediately before the detection step. 100 μL of substrate solution was added to each well and incubation was performed for 30 minutes at room temperature. Plates were analyzed using a micro plate reader set at 490 nm.

[2] = target: T1, human αvβ3 integrin ITGAVB3; test: SPR, αvβ3 integrin immobilised on CMDH chip, nanobody as analyte
Method: Specifically, a CMDH chip (Carboxymethyl Dextran Hydrogel Surface Sensor Chip, Reichert Technologies) coated with Dextran was mounted on an SPR equipment (Reichert SR7500DC system) to perform immobilization of αᵥβ₃ integrin antigen. Then, an analysis of the affinity of the selected antibody based on the concentration was performed.

[3] = target: T1, human αvβ3 integrin ITGAVB3; test: ELISA of soluble VHH, induced at 30 C; coating not given
[4] = target: T1, human αvβ3 integrin ITGAVB3; test: ELISA of soluble VHH (TG1 lysate), induced at 37 C, coated ITGAVB3
[5] = target: T1, human αvβ3 integrin ITGAVB3; test: ELISA of soluble VHH (TG1 lysate), induced at 30 C, coated ITGAVB3
[6] = target: T1, human αvβ3 integrin ITGAVB3; test: ELISA of soluble VHH, induced at 37 C; coating not given

Binder | OD490 [1] | also measured
B1 | 1.95 | –
B2 | 1.98 | –
B3 | 2.01 | –
B4 | 1.97 | –
B5 | 2.04 | –
B6 | 2.12 | –
B7 | 2.14 | –
B8 | 1.86 | –
B9 | – | Kd [2]: 15.5 nM; koff [2]: 0.000974 s⁻¹; kon [2]: 62700 M⁻¹ s⁻¹
B10 | 2.01 | –
B11 | – | Kd [2]: 8.83 nM; koff [2]: 0.000871 s⁻¹; kon [2]: 98600 M⁻¹ s⁻¹
B12 | 2.09 | –
B13 | 2.06 | OD490 [3]: 1.84; OD490 [4]: 1.93; OD490 [5]: 1.87; OD490 [6]: 1.23
B14 | 1.94 | –
B15 | 1.88 | –
B16 | 1.94 | –
B17 | – | Kd [2]: 9.38 nM; koff [2]: 0.00108 s⁻¹; kon [2]: 115000 M⁻¹ s⁻¹
B18 | 2.16 | –
B19 | 2.04 | –
B20 | 1.88 | –
B21 | 2.02 | –
B22 | 1.8 | –
B23 | 1.95 | –
B24 | 1.97 | –
B25 | 1.93 | –
